Measured values published in patent publication US20090291890A1 (published 2009).
Values joined by “and” are separate entries in the source; they are usually repeats but may differ in a detail not shown here. Equal values may be shown once.

Columns and labels:
wild-type FVIIa (human) [1] = target: wild-type FVIIa (human)
[2] = target: {Gla swap FIX/K43I}/Q286R/M298Q-FVIIa (human)
[3] = target: S52A/S60A/S222A/H257A/Q286R/M298Q-FVIIa (human)
[4] = target: T128N/P129A/S222A-FVIIa (human)
[5] = target: S222A/Q286R/M298Q/H373F-FVIIa (human)
[6] = target: A122N/G124S/A175S/S222A/H257A/Q286R/M298Q-FVIIa (human)
[7] = target: T128N/P129A/A175S/Q286R/M298Q-FVIIa (human)
[8] = target: T128N/P129A/T239V/Q286R/M298Q-FVIIa (human)
[9] = target: T239V/Q286R/H373F-FVIIa (human)
[10] = target: S222A/T239V-FVIIa (human)
[11] = target: A122N/G124S/A175S/Q286R-FVIIa (human)
[12] = target: {Gla swap FIX/K43I}/T128N/P129A/Q286R/M298Q/Q366N-FVIIa (human)
[13] = target: A122N/G124S/A175S/Q366V-FVIIa (human)
wild-type FVIIa (human) [14] = target: wild-type FVIIa (human); remark: listed apart in the source
[15] = target: Gla swap FIX/Q286R/M298Q-FVIIa (human)
[16] = target: T128N/P129A-FVIIa (human)
[17] = target: T128N/P129A/Q286R/M298Q/Q366N/H373F-FVIIa (human)
[18] = target: T128N/P129A/V158D/E296V/M298Q-FVIIa (human)
[19] = target: {Gla swap FIX/E40L}/Q286R/M298Q-FVIIa (human)
[20] = target: T128N/P129A/Q286R-FVIIa (human)
[21] = target: Q286R/M298Q-FVIIa (human)
[22] = target: A122N/G124S/A175S/Q286R/M298Q/H373F-FVIIa (human)
[23] = target: S222A/T239I/H257A/Q286R/M298Q-FVIIa (human)
[24] = target: GlaSwapFIX/S222A/T239I/Q286R-FVIIa (human)
[25] = target: S52A/S60A/Q286R-FVIIa (human)
[26] = target: Gla swap FIX/S52A/S60A/Q286R/M298Q-FVIIa (human)
[27] = target: T239I/Q286R/M298Q-FVIIa (human)
[28] = target: T128N/P129A/Q286R/M298Q-FVIIa (human)
[29] = target: T128N/P129A/T239V/Q286R/M298Q/H373F-FVIIa (human)
[30] = target: T128N/P129A/A175S/Q286R/M298Q/H373F-FVIIa (human)
[31] = target: Gla swap FIX/S222A/Q286R/M298Q-FVIIa (human)
[32] = target: S222A/T239V/H257A/Q286R/M298Q-FVIIa (human)
[33] = target: Q286R/H373F-FVIIa (human)
[34] = target: {Gla swap FIX/K43I}/Q286R/M298Q/Q366N-FVIIa (human)
[35] = target: Gla swap FIX/S222A/Q286R/H373F-FVIIa (human)
[36] = target: S222A/H257A/Q286R-FVIIa (human)
[37] = target: S222A/T239I-FVIIa (human)
[38] = target: T128N/P129A/A175S-FVIIa (human)
[39] = target: Gla swap FIX/T128N/P129A/A175S/S222A/Q286R-FVIIa (human)
[40] = target: V158D/T239V/E296V/M298Q-FVIIa (human)
[41] = target: T239V/Q286R/M298Q/Q366N-FVIIa (human)
[42] = target: T128N/P129A/M298Q-FVIIa (human)
[43] = target: Gla swap FIX/T239V/Q286R/M298Q-FVIIa (human)
[44] = target: Gla swap FIX-FVIIa (human)
[45] = target: V158D/Q286R/E296V/M298Q/H373F-FVIIa (human)
[46] = target: T239I/Q286R/M298Q/Q366N-FVIIa (human)
[47] = target: T239I/Q286R-FVIIa (human)
[48] = target: H257A/Q286R/M298Q-FVIIa (human)
[49] = target: H257A/Q286R-FVIIa (human)
[50] = target: V158D/Q286R/E296V/M298Q-FVIIa (human)
[51] = target: Gla swap FIX/A122N/G124S/A175S/S222A/Q286R-FVIIa (human)
wild-type FVIIa (human) [52] = target: wild-type FVIIa (human); remark: listed apart in the source

Sequence of antithrombin III (P01008 33-464): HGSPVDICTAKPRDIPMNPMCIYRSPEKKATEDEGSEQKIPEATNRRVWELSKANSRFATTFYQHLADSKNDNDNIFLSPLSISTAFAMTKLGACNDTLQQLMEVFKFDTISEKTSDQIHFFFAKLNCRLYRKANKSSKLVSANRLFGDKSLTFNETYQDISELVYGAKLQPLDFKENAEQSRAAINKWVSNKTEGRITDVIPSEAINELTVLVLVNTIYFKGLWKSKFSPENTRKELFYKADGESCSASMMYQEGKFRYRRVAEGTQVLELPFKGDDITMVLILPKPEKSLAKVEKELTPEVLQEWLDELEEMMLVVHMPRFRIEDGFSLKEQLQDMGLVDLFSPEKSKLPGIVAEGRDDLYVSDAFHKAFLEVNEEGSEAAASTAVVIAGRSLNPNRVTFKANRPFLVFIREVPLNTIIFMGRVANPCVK

antithrombin III
K0.5, TF-dependent, FVIIa from 293-F cells (wild-type FVIIa (human) [1]): 72.3 nM
K0.5, TF-dependent, FVIIa from BHK-21 cells (wild-type FVIIa (human) [1]): 56 nM
K0.5 mut/K0.5 wt, TF-dependent, 293-F cells (wild-type FVIIa (human) [1]): 1
K0.5 mut/K0.5 wt, TF-dependent, BHK-21 cells (wild-type FVIIa (human) [1]): 1
K0.5 [2]: 244 nM and 219 nM
K0.5 [3]: 448 nM
K0.5 [4]: 401 nM
K0.5 [5]: 163 nM
K0.5 [6]: 2970 nM
K0.5 [7]: 2310 nM
K0.5 [8]: 266 nM
K0.5 [9]: 631 nM
K0.5 [10]: 967 nM
K0.5 (A175S-FVIIa (human)): 1330 nM
K0.5 [11]: 6.92 µM
K0.5 (Q286R-FVIIa (human)): 1090 nM
K0.5 [12]: 319 nM
K0.5 [13]: 336 nM
K0.5 (wild-type FVIIa (human) [14]): 394 nM and 503 nM
K0.5 [15]: 282 nM and 238 nM
K0.5 [16]: 465 nM
K0.5 [17]: 148 nM
K0.5 [18]: 81.6 nM
K0.5 (K109N-FVIIa (human)): 330 nM
K0.5 [19]: 287 nM
K0.5 [20]: 1650 nM and 1740 nM
K0.5 [21]: 299 nM and 287 nM and 395 nM
K0.5 [22]: 1000 nM
K0.5 [23]: 1220 nM
K0.5 [24]: 3.31 µM
K0.5 [25]: 1320 nM
K0.5 [26]: 254 nM
K0.5 [27]: 1610 nM
K0.5 [28]: 284 nM
K0.5 [29]: 121 nM
K0.5 [30]: 1130 nM
K0.5 [31]: 266 nM
K0.5 [32]: 469 nM
K0.5 (H257S-FVIIa (human)): 723 nM
K0.5 [33]: 621 nM
K0.5 [34]: 404 nM
K0.5 [35]: 587 nM
K0.5 [36]: 2590 nM
K0.5 [37]: 1150 nM
K0.5 [38]: 1390 nM
K0.5 [39]: 6.49 µM
K0.5 [40]: 67.7 nM and 67.1 nM
K0.5 [41]: 252 nM
K0.5 [42]: 144 nM
K0.5 [43]: 484 nM and 314 nM
K0.5 [44]: 299 nM
K0.5 [45]: 62.1 nM
K0.5 [46]: 813 nM
K0.5 [47]: 5.82 µM
K0.5 [48]: 391 nM
K0.5 [49]: 2800 nM
K0.5 [50]: 85 nM
K0.5 [51]: 5.52 µM
K0.5, TF-independent, FVIIa from 293-F cells (wild-type FVIIa (human) [52]): 2260 nM
K0.5 mut/K0.5 wt, TF-independent, 293-F cells (wild-type FVIIa (human) [52]): 1
K0.5 mut/K0.5 wt, TF-independent, BHK-21 cells (wild-type FVIIa (human) [52]): 1
